Results taken from EP4725501A1 (Staidson (Beijing) Biopharmaceuticals Co., Ltd., dated 2026).

T1: human MASP3-His (human, UniProt P48740-2 20-728)
T1 sequence (looked up): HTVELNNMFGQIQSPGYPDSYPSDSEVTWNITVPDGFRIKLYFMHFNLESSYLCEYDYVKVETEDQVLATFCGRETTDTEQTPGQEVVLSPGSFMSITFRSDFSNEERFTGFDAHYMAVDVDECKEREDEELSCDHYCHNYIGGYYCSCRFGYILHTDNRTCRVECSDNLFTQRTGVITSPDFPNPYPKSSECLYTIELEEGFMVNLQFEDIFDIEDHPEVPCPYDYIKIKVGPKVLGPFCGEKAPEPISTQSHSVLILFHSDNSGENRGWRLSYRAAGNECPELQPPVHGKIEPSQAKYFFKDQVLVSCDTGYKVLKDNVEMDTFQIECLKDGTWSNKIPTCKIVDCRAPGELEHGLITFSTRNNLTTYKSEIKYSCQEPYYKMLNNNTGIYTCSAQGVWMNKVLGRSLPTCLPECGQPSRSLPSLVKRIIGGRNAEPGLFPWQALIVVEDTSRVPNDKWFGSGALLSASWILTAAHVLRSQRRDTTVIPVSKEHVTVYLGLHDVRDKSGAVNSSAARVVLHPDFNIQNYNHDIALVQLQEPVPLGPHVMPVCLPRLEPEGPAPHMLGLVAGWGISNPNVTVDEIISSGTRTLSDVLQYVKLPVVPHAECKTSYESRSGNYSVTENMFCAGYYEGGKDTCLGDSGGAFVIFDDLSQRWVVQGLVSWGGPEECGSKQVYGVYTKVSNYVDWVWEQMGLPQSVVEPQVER

T2: MASP3 in Factor D depleted human plasma (human, UniProt P48740-2 20-728)
T2 sequence (looked up): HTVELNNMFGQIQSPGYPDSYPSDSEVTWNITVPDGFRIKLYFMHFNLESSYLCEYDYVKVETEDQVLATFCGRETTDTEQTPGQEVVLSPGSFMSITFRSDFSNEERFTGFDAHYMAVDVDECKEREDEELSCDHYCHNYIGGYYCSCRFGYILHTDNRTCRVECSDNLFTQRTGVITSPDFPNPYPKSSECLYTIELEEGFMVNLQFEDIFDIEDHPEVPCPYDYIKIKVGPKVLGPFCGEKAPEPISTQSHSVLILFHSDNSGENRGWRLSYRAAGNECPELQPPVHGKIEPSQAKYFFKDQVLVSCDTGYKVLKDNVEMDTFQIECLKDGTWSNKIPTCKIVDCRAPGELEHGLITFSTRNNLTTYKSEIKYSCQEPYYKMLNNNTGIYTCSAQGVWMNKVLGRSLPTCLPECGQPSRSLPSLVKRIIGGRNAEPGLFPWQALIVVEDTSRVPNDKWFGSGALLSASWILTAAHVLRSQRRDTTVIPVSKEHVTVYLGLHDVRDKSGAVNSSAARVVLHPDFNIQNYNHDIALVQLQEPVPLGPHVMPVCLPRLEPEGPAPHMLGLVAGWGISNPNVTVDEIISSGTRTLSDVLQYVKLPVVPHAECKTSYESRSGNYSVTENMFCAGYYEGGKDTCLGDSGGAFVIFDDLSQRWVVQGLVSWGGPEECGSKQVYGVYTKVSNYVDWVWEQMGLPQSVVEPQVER

B1: M3-K1-4 (antibody, V domains shown)
VH: QVQLVQSGAEVKKPGASVKVSCKASGYTFTGKWIEWVRQAPGQGLEWMGEILPGSGSTDYNERFKDRATFTADTSTSTAYMELSSLRSEDTAVYYCVRSEDLWGQGTLVTVSS
VL: DIVMTQSPDSLAVSLGERATINCKSSQSLLNSVTRKTYLAWYQQKPGQSPKLLIYWASTRESGVPDRFSGSGSGTDFTLTISSLQAEDVAVYYCKQSYTLPTFGGGTKVEIK
B2: M3-K2-9 (antibody, V domains shown)
VH: QVQLVQSGAEVKKPGASVKVSCKASGYTFTGKWIEWVRQAPGQGLEWMGEILPGSGSTDYNERFKDRATFTADTSTSTAYMELSSLRSEDTAVYYCVRSEDLWGQGTLVTVSS
VL: DIVMTQSPDSLAVSLGERATINCKSSQNLFNSRTRKNYLAWFQQKPGQSPKLLIYWASTRESGVPDRFSGSGSGTDFTLTISSLQAEDVAVYYCKQSYIPFTFGGGTKVEIK
B3: M3-K1-5 (antibody, V domains shown)
VH: QVQLVQSGAEVKKPGASVKVSCKASGYTFTGKWIEWVRQAPGQGLEWMGEILPGSGSTDYNERFKDRVTFTADTSTSTVYMELSSLRSEDTAVYYCVRSEDLWGQGTLVTVSS
VL: DIVMTQSPDSLAVSLGERATINCKSSQSLLNSVTRKTYLAWYQQKPGQPPKLLIYWASTRESGVPDRFSGSGSGTDFTLTISSLQAEDVAVYYCKQSYTLPTFGGGTKVEIK
B4: M3-K2-10 (antibody, V domains shown)
VH: QVQLVQSGAEVKKPGASVKVSCKASGYTFTGKWIEWVRQAPGQGLEWMGEILPGSGSTDYNERFKDRVTFTADTSTSTVYMELSSLRSEDTAVYYCVRSEDLWGQGTLVTVSS
VL: DIVLTQSPDSLAVSLGERATINCKSSQNLFNSRTRKNYLAWFQQKPGQSPKLLIYWASTRESGVPDRFSGSGSGTDFTLTISSLQAEDVAVYYCKQSYIPFTFGGGTKVEIK
B5: M3-K1-6 (antibody, V domains shown)
VH: QVQLVQSGAEVKKPGASVKVSCKASGYTFTGKWIEWVRQAPGQGLEWMGEILPGSGSTDYNERFKDRVTFTADTSTSTVYMELSSLRSEDTAVYYCVRSEDLWGQGTLVTVSS
VL: DIVMTQSPDSLAVSLGERATINCKSSQSLLNSVTRKTYLAWYQQKPGQSPKLLIYWASTRESGVPDRFSGSGSGTDFTLTISSLQAEDVAVYYCKQSYTLPTFGGGTKVEIK
B6: M3-K2-5 (antibody, V domains shown)
VH: QVQLVQSGAEVKKPGASVKVSCKASGYTFTGKWIEWVRQAPGQGLEWMGEILPGSGSTDYNERFKDRVTFTADTSTSTVYMELSSLRSEDTAVYYCVRSEDLWGQGTLVTVSS
VL: EIVLTQSPATLSVSPGERATLSCKSSQNLFNSRTRKNYLAWFQQKPGQSPRLLIYWASTRESGIPARFSGSGSGTEFTLTISSLQSEDFAVYYCKQSYIPFTFGGGTKVEIK
B7: M3-K1-1 (antibody, V domains shown)
VH: QVQLVQSGAEVKKPGASVKVSCKASGYTFTGKWIEWVRQAPGQGLEWIGEILPGSGSTDYNERFKDRATFTADTSTSTAYMELSSLRSEDTAVYYCVRSEDLWGQGTLVTVSS
VL: DIVMTQSPDSLAVSLGERATINCKSSQSLLNSVTRKTYLAWYQQKPGQPPKLLIYWASTRESGVPDRFSGSGSGTDFTLTISSLQAEDVAVYYCKQSYTLPTFGGGTKVEIK

Legend:
human MASP3-His = target: T1, human MASP3-His; assay: cell-based or functional assay
[1] = target: T2, MASP3 in Factor D depleted human plasma; assay: cell-based or functional assay

| Binder | IC50 (nM), inhibition of MASP3 enzyme activity (fluorescent tripeptide cleavage) (human MASP3-His) [nM] | Inhibit hemolysis IC50 [1] [nM] |
| --- | --- | --- |
| B1 | 29.9 |  |
| B2 | 33.7 |  |
| B3 | 27.9 |  |
| B4 | 37 |  |
| B5 | 28.2 |  |
| B6 |  | 3.41 |
| B7 | 31.5 |  |
